This is an account of results in publication PMC3893235 (mAbs, 2013).

One test deals with human Tie2-Fc (human, UniProt Q02763 23-748). Briefly: ELISA.
Test [1] has as its target T1, biotinylated huAng2 (human, UniProt O15123, biotin). As to the kind of experiment: ELISA.
Another test has as its target human Ang2 protein (Homo sapiens (Human)., UniProt O15123). Briefly: KinExA.
Test [2] addresses T1, biotinylated huAng2. Briefly: ELISA. The source holds these as a separate data set.

Sequence of human Tie2-Fc (Q02763 23-748): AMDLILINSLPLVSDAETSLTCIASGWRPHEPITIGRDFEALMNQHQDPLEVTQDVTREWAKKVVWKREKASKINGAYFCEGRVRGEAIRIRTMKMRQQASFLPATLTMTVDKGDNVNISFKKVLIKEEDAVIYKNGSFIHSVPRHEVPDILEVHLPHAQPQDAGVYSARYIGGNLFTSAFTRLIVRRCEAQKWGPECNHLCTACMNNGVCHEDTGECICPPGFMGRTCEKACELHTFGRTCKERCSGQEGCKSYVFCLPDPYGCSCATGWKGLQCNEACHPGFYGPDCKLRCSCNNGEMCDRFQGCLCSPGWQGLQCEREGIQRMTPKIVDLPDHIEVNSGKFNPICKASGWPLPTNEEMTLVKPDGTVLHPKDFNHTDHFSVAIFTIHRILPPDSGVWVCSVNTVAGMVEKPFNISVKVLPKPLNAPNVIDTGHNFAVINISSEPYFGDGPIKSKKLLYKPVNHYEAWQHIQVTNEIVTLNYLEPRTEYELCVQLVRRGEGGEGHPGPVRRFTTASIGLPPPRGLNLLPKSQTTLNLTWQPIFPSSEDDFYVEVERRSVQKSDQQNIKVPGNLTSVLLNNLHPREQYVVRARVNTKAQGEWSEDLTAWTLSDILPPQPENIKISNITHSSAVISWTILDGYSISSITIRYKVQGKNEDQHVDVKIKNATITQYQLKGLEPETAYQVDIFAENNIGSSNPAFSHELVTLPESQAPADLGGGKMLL

B1: biotinylated huAng2 (ligand, human, UniProt O15123 19-496, looked up)
chain: YNNFRKSMDSIGKKQYQVQHGSCSYTFLLPEMDNCRSSSSPYVSNAVQRDAPLEYDDSVQRLQVLENIMENNTQWLMKLENYIQDNMKKEMVEIQQNAVQNQTAVMIEIGTNLLNQTAEQTRKLTDVEAQVLNQTTRLELQLLEHSLSTNKLEKQILDQTSEINKLQDKNSFLEKKVLAMEDKHIIQLQSIKEEKDQLQVLVSKQNSIIEELEKKIVTATVNNSVLQKQQHDLMETVNNLLTMMSTSNSAKDPTVAKEEQISFRDCAEVFKSGHTTNGIYTLTFPNSTEEIKAYCDMEAGGGGWTIIQRREDGSVDFQRTWKEYKVGFGNPSGEYWLGNEFVSQLTNQQRYVLKIHLKDWEGNEAYSLYEHFYLSSEELNYRIHLKGLTGTAGKISSISQPGNDFSTKDGDNDKCICKCSQMLTGGWWFDACGPSNLNGMYYPQRQNTNKFNGIKWYYWKGSGYSLKATTMMIRPADF
modifications: biotin
Turning to B1, in the test with human Tie2-Fc, the binding result is “binds”.

B2: Ang2 mAb (antibody, V domains shown)
VH: QVQLVESGGGVVQPGRSLRLSCAASGFTFTNYGMHWGRQAPGKGLEWVAVISHDGNNKYYVDSVKGRFTISRDNSKNTLYLQMNSLRAEDTAVYYCAREGIDFWSGLNWFDPWGQGTLVTVSS
VL: EIVLTQSPGTLSLSPGERATLSCRASQSITGSYLAWYQQKPGQAPRLLICGASSWATGIPDRFSGSGSGTDFTLTISRLEPEDFAVYYCQQYSSSPITFGQGTRLEIK
For B2, the half-maximal inhibitory concentration (IC50) in the test with biotinylated huAng2 [1] was 0.2 nM. Binding in the test with human Ang2 protein was characterised by a dissociation constant (Kd) of 0.0245 nM.

B3: Ang2 mAb variant Cys49Gly (antibody, V domains shown)
VH: QVQLVESGGGVVQPGRSLRLSCAASGFTFTNYGMHWGRQAPGKGLEWVAVISHDGNNKYYVDSVKGRFTISRDNSKNTLYLQMNSLRAEDTAVYYCAREGIDFWSGLNWFDPWGQGTLVTVSS
VL: EIVLTQSPGTLSLSPGERATLSCRASQSITGSYLAWYQQKPGQAPRLLIGGASSWATGIPDRFSGSGSGTDFTLTISRLEPEDFAVYYCQQYSSSPITFGQGTRLEIK
B3: the “fold change of potency against Ang2 mAb” value with biotinylated huAng2 [2] was at most 2.5 fold.

B4: Ang2 mAb variant Cys49Phe (antibody, V domains shown)
VH: QVQLVESGGGVVQPGRSLRLSCAASGFTFTNYGMHWGRQAPGKGLEWVAVISHDGNNKYYVDSVKGRFTISRDNSKNTLYLQMNSLRAEDTAVYYCAREGIDFWSGLNWFDPWGQGTLVTVSS
VL: EIVLTQSPGTLSLSPGERATLSCRASQSITGSYLAWYQQKPGQAPRLLIFGASSWATGIPDRFSGSGSGTDFTLTISRLEPEDFAVYYCQQYSSSPITFGQGTRLEIK
As to B4, the binding result with biotinylated huAng2 [2] is on record as “binds”.

B5: Cys49Thr mAb (antibody, V domains shown)
VH: QVQLVESGGGVVQPGRSLRLSCAASGFTFTNYGMHWGRQAPGKGLEWVAVISHDGNNKYYVDSVKGRFTISRDNSKNTLYLQMNSLRAEDTAVYYCAREGIDFWSGLNWFDPWGQGTLVTVSS
VL: EIVLTQSPGTLSLSPGERATLSCRASQSITGSYLAWYQQKPGQAPRLLITGASSWATGIPDRFSGSGSGTDFTLTISRLEPEDFAVYYCQQYSSSPITFGQGTRLEIK
As for B5, inhibition with biotinylated huAng2 [1] was half-maximal at 0.28 nM (IC50). Also, the equilibrium dissociation constant (Kd) with human Ang2 protein came to 0.037 nM.

B6: Ang2 mAb variant Cys49Ala (antibody, V domains shown)
VH: QVQLVESGGGVVQPGRSLRLSCAASGFTFTNYGMHWGRQAPGKGLEWVAVISHDGNNKYYVDSVKGRFTISRDNSKNTLYLQMNSLRAEDTAVYYCAREGIDFWSGLNWFDPWGQGTLVTVSS
VL: EIVLTQSPGTLSLSPGERATLSCRASQSITGSYLAWYQQKPGQAPRLLIAGASSWATGIPDRFSGSGSGTDFTLTISRLEPEDFAVYYCQQYSSSPITFGQGTRLEIK
Consider B6, for which, in the test with biotinylated huAng2 [2], the “fold change of potency against Ang2 mAb” value was at most 2.5 fold.

B7: Ang2 mAb variant Cys49Glu (antibody, V domains shown)
VH: QVQLVESGGGVVQPGRSLRLSCAASGFTFTNYGMHWGRQAPGKGLEWVAVISHDGNNKYYVDSVKGRFTISRDNSKNTLYLQMNSLRAEDTAVYYCAREGIDFWSGLNWFDPWGQGTLVTVSS
VL: EIVLTQSPGTLSLSPGERATLSCRASQSITGSYLAWYQQKPGQAPRLLIEGASSWATGIPDRFSGSGSGTDFTLTISRLEPEDFAVYYCQQYSSSPITFGQGTRLEIK
On to B7, for which, in the test with biotinylated huAng2 [2], the binding result is “binds”.

B8: Cys49Asp (antibody, V domains shown)
VH: QVQLVESGGGVVQPGRSLRLSCAASGFTFTNYGMHWGRQAPGKGLEWVAVISHDGNNKYYVDSVKGRFTISRDNSKNTLYLQMNSLRAEDTAVYYCAREGIDFWSGLNWFDPWGQGTLVTVSS
VL: EIVLTQSPGTLSLSPGERATLSCRASQSITGSYLAWYQQKPGQAPRLLIDGASSWATGIPDRFSGSGSGTDFTLTISRLEPEDFAVYYCQQYSSSPITFGQGTRLEIK
On to B8, for which, in the test with biotinylated huAng2 [2], the binding result is on record as “binds”.

B9: Cys49Asn (antibody, V domains shown)
VH: QVQLVESGGGVVQPGRSLRLSCAASGFTFTNYGMHWGRQAPGKGLEWVAVISHDGNNKYYVDSVKGRFTISRDNSKNTLYLQMNSLRAEDTAVYYCAREGIDFWSGLNWFDPWGQGTLVTVSS
VL: EIVLTQSPGTLSLSPGERATLSCRASQSITGSYLAWYQQKPGQAPRLLINGASSWATGIPDRFSGSGSGTDFTLTISRLEPEDFAVYYCQQYSSSPITFGQGTRLEIK
Regarding B9, in the test with biotinylated huAng2 [2], the binding result is recorded as “binds”.
